The source of these data is paper PMC10247153.

pKd: −log10 of the molar value.

As usually defined, the pKd is −log10 of the Kd, conventionally taken in molar units.

The test system of series [1] is KDM5C ARID K101A/R107A (Homo sapiens). Kind of series: EMSA. The settings on record: EMSA: 50 mM HEPES pH 7.5, 50 mM KCl, 1 mM BME, 0.01% Tween-20, 0.01% BSA, 5% sucrose, 1 h on ice; 100 nM nucleosome or 147 bp DNA, 500 nM 20 bp DNA; gel at 4 C.; scale: fold reduction. Background: A gel shift assay detects complexes by their altered migration in electrophoresis.
Series [2] relates to KDM5C1-839 (Homo sapiens). Kind of series: EMSA. The settings on record: EMSA: 50 mM HEPES pH 7.5, 50 mM KCl, 1 mM BME, 0.01% Tween-20, 0.01% BSA, 5% sucrose, 1 h on ice, 100 nM nucleosome or 147 bp DNA, 500 nM 20 bp DNA, gel at 4 C.; for pKd: apparent Kd.
Series [3] relates to KDM5C1-839 A388P (Homo sapiens). Kind of series: EMSA. The settings on record: apparent Kd, EMSA: 50 mM HEPES pH 7.5, 50 mM KCl, 1 mM BME, 0.01% Tween-20, 0.01% BSA, 5% sucrose, 1 h on ice, 100 nM nucleosome or 147 bp DNA, gel at 4 C.
In series [4] the test system is KDM5C1-839 D343A (Homo sapiens). The series can be described thus: EMSA. The settings on record: apparent Kd, EMSA: 50 mM HEPES pH 7.5, 50 mM KCl, 1 mM BME, 0.01% Tween-20, 0.01% BSA, 5% sucrose, 1 h on ice, 100 nM nucleosome or 147 bp DNA, gel at 4 C.
Series [5] concerns KDM5C1-839 D87G (Homo sapiens). The series can be described thus: EMSA. As to conditions: apparent Kd, EMSA: 50 mM HEPES pH 7.5, 50 mM KCl, 1 mM BME, 0.01% Tween-20, 0.01% BSA, 5% sucrose, 1 h on ice, 100 nM nucleosome or 147 bp DNA, gel at 4 C.
Series [6] has as its system KDM5C1-839 ΔAP (Homo sapiens). Kind of series: EMSA. The settings on record: apparent Kd, EMSA: 50 mM HEPES pH 7.5, 50 mM KCl, 1 mM BME, 0.01% Tween-20, 0.01% BSA, 5% sucrose, 1 h on ice, 100 nM nucleosome or 147 bp DNA, 500 nM 20 bp DNA, gel at 4 C.
The target of series [7] is H3K4me3 147 bp mononucleosome (human) (UniProt P68431). Kind of series: native gel or EMSA; 100 nM nucleosome with various concentrations of KDM5C; 50 mM HEPES pH 7.5, 50 mM KCl, 1 mM BME, 0.01% Tween-20, 0.01% BSA, 5% sucrose; 1 hr on ice; native 7.5% PAGE at 4 °C; apparent dissociation constants from a cooperative binding fit.
The target of series [8] is H3K4me3 187 bp mononucleosome (human) (UniProt P68431). The description is as above.
For series [9], the target named is unmodified 147 bp mononucleosome (human) (UniProt P68431). Described as above.
The target of series [10] is unmodified 187 bp mononucleosome (human) (UniProt P68431). The description is as above.
Series [11] concerns the target H3K4me3 147 bp mononucleosome (human) (UniProt P68431).
For series [12], the target named is H3K4me3 187 bp mononucleosome (human) (UniProt P68431).
The test system of series [13] is KDM5C1-839 ΔAP A388P (Homo sapiens). Kind of series: EMSA. As to conditions: apparent Kd; lower limit, saturation unattainable; EMSA: 50 mM HEPES pH 7.5, 50 mM KCl, 1 mM BME, 0.01% Tween-20, 0.01% BSA, 5% sucrose, 1 h on ice; 100 nM nucleosome or 147 bp DNA, 500 nM 20 bp DNA; gel at 4 C.
The mark [14] stands for this setting: histone H3K4me3, 500 nM 20 bp DNA.
Where [15] appears, read: lower limit, saturation unattainable.

KDM5C^1–839, sequence (P41229 1-839): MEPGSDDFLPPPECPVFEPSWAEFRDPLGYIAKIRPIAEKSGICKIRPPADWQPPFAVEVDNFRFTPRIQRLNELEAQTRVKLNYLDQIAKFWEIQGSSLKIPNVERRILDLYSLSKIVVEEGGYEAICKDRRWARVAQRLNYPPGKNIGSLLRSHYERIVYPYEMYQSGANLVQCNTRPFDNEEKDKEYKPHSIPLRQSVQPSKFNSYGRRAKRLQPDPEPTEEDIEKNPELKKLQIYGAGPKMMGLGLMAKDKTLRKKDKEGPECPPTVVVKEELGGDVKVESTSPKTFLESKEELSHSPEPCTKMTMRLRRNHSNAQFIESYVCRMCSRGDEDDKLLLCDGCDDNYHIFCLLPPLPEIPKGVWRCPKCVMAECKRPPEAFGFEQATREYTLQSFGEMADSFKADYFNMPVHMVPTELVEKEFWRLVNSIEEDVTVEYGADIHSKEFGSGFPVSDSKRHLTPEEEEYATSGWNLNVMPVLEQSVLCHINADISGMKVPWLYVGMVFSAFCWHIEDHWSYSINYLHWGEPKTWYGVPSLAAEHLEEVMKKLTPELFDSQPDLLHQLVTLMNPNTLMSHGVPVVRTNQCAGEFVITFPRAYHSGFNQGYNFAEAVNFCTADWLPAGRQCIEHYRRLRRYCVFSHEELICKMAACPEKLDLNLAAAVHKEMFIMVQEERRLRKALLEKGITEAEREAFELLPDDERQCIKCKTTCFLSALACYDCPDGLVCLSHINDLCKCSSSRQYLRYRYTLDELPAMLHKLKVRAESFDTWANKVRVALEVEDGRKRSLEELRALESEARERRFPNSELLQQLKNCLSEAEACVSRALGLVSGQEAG

Consider 147 bp 601 DNA, for which, in [1], the binding signal was 22.
Turning to H3K4me3 147 bp core nucleosome, the pKd in series [2] (Hill n 2.3, histone H3K4me3) is 5.16; in [3] (setting [14]) it was 5.43; in [4] (setting [14]), 5.05; in [5] (setting [14]), 5.64; in [6] (Hill n 2.4, histone H3K4me3), 4.70.
In the case of H3K4me3 187 bp nucleosome, the pKd is 5.14 in series [2] (histone H3K4me3), 5.74 in [3] (setting [14]), 5.33 in series [4] (setting [14]) and 5.89 in series [5] (setting [14]).
For the substance “KDM5C^1–839 (from UniProt P41229-1 1-839) (domain or fragment)”, the pKd in [7] is 5.15; in [8], 5.15; in series [9] it was 4.89. The fold gain in affinity against the core (147 bp) nucleosome in [10] was found to be 3 fold.
Take “KDM5C^1–839 A388P (from UniProt P41229-1 1-839) (domain or fragment)”: in [8], the fold gain in affinity against the H3K4me3 core nucleosome came to 2 fold. In series [10], the pKd was 6.00.
On to “KDM5C^1–839 D87G (from UniProt P41229-1 1-839) (domain or fragment)”, for which the catalytic efficiency kmax/Km^app of demethylation of the H3K4me3 core nucleosome (TR-FRET, single turnover), increase against wild type KDM5C^1–839 in [11] was 3 fold. Further, the catalytic efficiency kmax/Km^app of demethylation of the 187 bp H3K4me3 nucleosome (TR-FRET, single turnover), against wild type KDM5C^1–839 in series [12] is 2 fold. In series [8], the fold gain in affinity against the H3K4me3 core nucleosome is 2 fold. For the same substance, the pKd in [10] is 6.00.
With “KDM5C^1–839 D343A (from UniProt P41229-1 1-839) (domain or fragment)”, the pKd in series [7] was 5.05; in series [8], 5.33; in series [9] it was 5.08; in [10] it was 5.49.
For the substance “KDM5C^(1–839 ΔAP) (from UniProt P41229-1 1-82; P41229-1 379-839) (domain or fragment)”, the fold reduction in affinity against KDM5C^1–839 in series [7] and in series [9] was 3 fold each time.
For unmodified 147 bp core nucleosome, the pKd in series [2] (setting [15]) is under 4.90; in series [4] (500 nM 20 bp …) it was 5.08; in series [6] (setting [15]) it was under 4.46; in [13], under 4.35.
Take unmodified 187 bp nucleosome: the binding signal in series [2] (scale: fold gain in affinity vs 147 bp nucleosome) was 3. Further, the negative-log Kd (pKd) was 6.00 in series [3] (500 nM 20 bp …), 5.49 in [4] (500 nM 20 bp …) and 6.00 in [5] (500 nM 20 bp …).
